Experiment: Effect of glycosidase treatment on rHuPH20 hyaluronidase activity
Assay type: biochemical
Design: unit not given here
Protocol: In short, a 4×BH 96-well plate was coated with biotinylated-HA (1.1 MDa). The 72 hour post transfection supernatant from cells transfected with human PH20 hyaluronidase carboxy-terminus deletion mutants was diluted in buffer at either pH 7.4 or pH 5.5 and added to individual wells of the plate and allowed to incubate at 37° C. for 90 minutes. The reaction was terminated by addition of 4M guanidine HCl. The wells were washed 4× with Phosphate Buffered Saline with Tween20 (PBST) to remove any digested biotinylated-HA followed by addition of streptavidin-HRP for 1 hour at room temperature. The wells were washed 4× with PBST and the plate was developed with TMB. The plate was read at 450 nm using an ELISA plate reader. Hyaluronidase activity (in Units/mL) was determined by interpolating the measured absorbance at 450 nm with a hyaluronidase reference standard curve. Full length mature human PH20 hyaluronidase and untransfected CHO cells were used as positive and negative controls.
Human PH20 hyaluronidase is glycosylated at six different asparagine residues, including N82, N166, N235, N254, N368, and N393. Five glycosidases were used to generate deglycosylated human PH20 hyaluronidase, including: PNGaseF (New England Biolabs, Cat. No. P0704S, Lot #34), which cleaves all N-glycans; EndoF1, which cleaves high mannose and hybrid type glycans; EndoF2, which cleaves biantennary complex type glycans; EndoF3, which cleaves biantennary and more branched complex glycans; and EndoH (New England Biolabs, Cat. No. P0702S), which cleaves high mannose and hybrid type glycans. Therefore, treatment with PNGaseF results in complete deglycosylation whereas treatment with endoglycosidases results in only partial deglycosylation.
For complete deglycosylation, purified rHuPH20 (0.1 mg/mL final concentration) was incubated with PNGaseF (50,000 units/mL) in 50 mM phosphate buffer pH 7.2 overnight at 37° C. For partial deglycosylation, purified rHuPH20 (0.5 mg/mL final concentration) was incubated with 0.3 units/mL of endoglycosidase (either EndoF1, EndoF2, EndoF3 or EndoH) or a mixture all four endoglycosidases in 50 mM sodium acetate buffer pH 5.0 overnight at 35° C. Deglycosylation of rHuPH20 was analyzed by the shift in the mobility of PH20 by SDS-PAGE. Hyaluronidase enzymatic activity was determined as described in Example 5.

B1: PNGaseF: purified rHuPH20 incubated with PNGaseF (complete deglycosylation) (protein, listed as Homo sapiens)
chain: LNFRAPPVIPNVPFLWAWNAPSEFCLGKFDEPLDMSLFSFIGSPRINATGQGVTIFYVDRLGYYPYIDSITGVTVNGGIPQKISLQDHLDKAKKDITFYMPVDNLGMAVIDWEEWRPTWARNWKPKDVYKNRSIELVQQQNVQLSLTEATEKAKQEFEKAGKDFLVETIKLGKLLRPNHLWGYYLFPDCYNHHYKKPGYNGSCFNVEIKRNDDLSWLWNESTALYPSIYLNTQQSPVAATLYVRNRVREAIRVSKIPDAKSPLPVFAYTRIVFTDQVLKFLSQDELVYTFGETVALGASGIVIWGTLSIMRSMKSCLLLDNYMETILNPYIINVTLAAKMCSQVLCQEQGVCIRKNWNSSDYLHLNPDNFAIQLEKGGKFTVRGKPTLEDLEQFSEKFYCSCYSTLSCKEKADVKDTDAVDVCIADGVCIDAFLKPPMETEEPQIFY
modifications: N-glycans removed by PNGaseF; soluble rHuPH20 36-482
- rHuPH20 activity after glycosidase treatment (assay readout) (rHuPH20 0.0080 U/ml): 1.9172
- rHuPH20 activity after glycosidase treatment (assay readout) (rHuPH20 0.0400 U/ml): 1.9926
- rHuPH20 activity after glycosidase treatment (assay readout) (rHuPH20 0.2000 U/ml): 1.9173
- rHuPH20 activity after glycosidase treatment (assay readout) (rHuPH20 1.0000 U/ml): 1.9315

— patent publication US9284543B2, “Neutral active soluble truncated PH20 polypeptides and uses thereof” (Halozyme, Inc., priority 2008, dated 2016)
